Measurements published in patent US20180265915A1, “TRANSCRIPTION FACTOR DECOYS” (priority 2008, published 2018).

Legend:
S. aureus ATCC 6538NA = test: Fur TFD growth assay in non-iron-limiting and iron-limiting media; assay type: cell-based, Staphylococcus aureus; conditions: 1 nM TFD; DOTAP, 60 nM gramicidin
Description: S. aureus ATCC 6538NA cultures were grown and maintained in BHI media (Becton Dickenson). Frozen stocks were prepared by mixing equal volumes of a culture in early exponential growth (OD of 0.3 at A600) with 50% glycerol and freezing at −80° C. BHI was the media used for non-iron limiting conditions and NRPMI, which had been prepared as previously described (Skaar et al. 2004), for iron-limiting growth conditions.
A stock solution of gramicidin (Sigma) was freshly prepared by dissolving 21 mg in 1 ml methanol, diluted prior to use in water and further diluting 1/100 in growth medium to give a final concentration of 60 nM. Supplemented media was inoculated 1/100 with the frozen S. aureus stock and incubated at room temperature for 10 min. TFD-DOTAP complexes were formed by mixing 1 ug of TFD with 2 μg of DOTAP (Roche) and incubating at room temperature for 10 min on the bench. The TFD complex was then mixed with inoculated medium, aliquoted into 96 well flat-bottomed plates and growth was analysed by culturing at 37° C. with shaking in a BioTek plate reader.
To achieve transfection, TFDs were mixed with the commercially available lipid preparation DOTAP to form a stable complex and shield the negative charge of the phosphate backbone. The TFD-DOTAP complex was then mixed with S. aureus in BHI, a non-iron limiting medium, which had been supplemented with 60 nM gramicidin. […]

S. aureus = test: Quantification of TFD number by real-time qPCR; assay type: cell-based, Staphylococcus aureus; conditions: in the presence of the transfection reagents; BHI
Description: Cells from individual wells were washed twice in PBS (phosphate buffered saline) and resuspended in 100 μl water. 1 μl of each sample was used in each qPCR reaction, mixing DNA standards or samples with primers to either amplify the TFD (Tef and Ter; SEQ ID NOs 1 & 2) or 16S rRNA (stypF, 5′-ACGGTCTTGCTGTCACTTATA-3′ (SEQ ID NO: 36); stypR, 5′-TACACATATGTTCTTCCCTAATAA-3′ (SEQ ID NO: 37)) in 12.5 ul of SYBR Green DNA mix supplemented with 0.5 μl of ROX (Invitrogen). The resultant data was used to calculate the number of TFDs present per genome.

[1] = tested on: methicillin-resistant strains (MRSA); test: Sig TFD growth assay on MRSA clinical isolates; assay type: cell-based, Staphylococcus aureus; conditions: 10 nM TFD; DOTAP, 60 nM Gramicidin
Description: Cholesterol/Cy5-labeled decoy polynucleotides were prepared as in Example 5.1. Typically 1 μg of Sig TFD was then complexed with 0.3 μl of the liposomal transfection reagent DOTAP (1,2-dioleoyl-3-trimethylammonium propane; Roche) and incubated at room temperature for 10 min. The assays to determine their effect on growth of bacterial cells were performed using 96 well plates, each well containing 200 μl of broth consisting of BHI media (Becton Dickinson) supplemented with 60 nM Gramicidin (Sigma Corporation. Cat# G5002). 1 μl of various concentrations of a Cholesterol/Cy5-labeled decoy complexed with TFD were added to each well and the effect on bacterial growth of clinical isolates of S. aureus that had been determined to be methicillin-resistant strains (MRSA) was monitored. Growth was monitored by measuring absorbance of the broth at time intervals during incubation. The plates were incubated at 37° C. with shaking and absorbance readings (at 450 nM) were taken using a plate reader.

EMRSA15 = test: Lag-time growth assay with antibiotics on EMRSA15; assay type: cell-based, Staphylococcus aureus; conditions: 10 nM TFD
Description: Sig dumbbell TFD was prepared as described in Example 9.1 (see below). A growth assay was carried out as described in Example 5.2 with a well-characterised MRSA strain, EMRSA15.
For the cultures treated with the Sig TFD, the lag-time is the delay in growth compared to that seen with the Control TFD in the presence of antibiotic.
Lagtime is defined as the time that growth is delayed (in comparison to a mock-transfected culture) due to treatment of the TFD.

[2] = tested on: clinically-isolated MRSA strain MRSA-5; test: Dumbbell Sig TFD growth assay on a clinically-isolated MRSA strain; assay type: cell-based, Staphylococcus aureus; conditions: 10 nM TFD, dumbbell configuration
Description: A growth assay was performed as described in Example 5.1 using the Sig TFD in its dumbbell configuration and a clinically-isolated MRSA strain.

K. pneumoniae [3] = test: Sigma 54 TFD growth assay, cell penetrating peptide transfection; assay type: cell-based, Klebsiella pneumoniae; conditions: 10 nM TFD; M9 media; complexed with cell penetrating peptide
Description: Growth assays were performed as described in Section 4.1 with the difference being that the media used was M9 media (Sambrook et al (1989) Molecular Cloning. 2nd Edition vol. 3 p.A3). The media was not supplemented with any co-transfectant.
Transfection was achieved by complexing the TFD with a cell penetrating peptide. The peptide consisted of two portions: a linear chain of nine D-arginines and a previously described peptide sequence found to be capable of penetrating the membrane of K. pneumoniae (Vaara, Antimicrobial Agents and Chemotherapy (1996) 40:1801). The positively charged arginines (R9) serve to bind the phosphate backbone of the TFD through a charge interaction. The use of such R9 tails to complex transfecting moieties to transfect bacteria has been described previously (Kim, Molecular Therapy (2006) 14:343). The entire sequence of the peptide used was:
TFDs were mixed with increasing amounts of IKFLKFLKKL-R9 peptide in a TE based buffer supplemented with 5% glucose. The mixture was incubated at room temperature for 1 hour and then either used directly in transfections or analysed by agarose gel electrophoresis. Typically the minimum amount of IKFLKFLKKL-R9 was used that caused the complex with DNA not to run in the gel; i.e. the charge of the nucleic acid backbone had been neutralised by binding of poly-arginine. […]

K. pneumoniae [4] = test: KP_Sig TFD growth assay in vitro; assay type: cell-based, Klebsiella pneumoniae; conditions: PCR_TFD, transfected using a cell penetrating peptide
Excerpt: Cells were transfected as described in Example 13, using a cell penetrating peptide. […] The two controls used were: untreated cells (K. pneumoniae) and a control TFD consisting of a scrambled sequence.

B1: Control TFD: unrelated sequence of similar nucleotide composition that does not occur in the S. aureus genome, SEQ ID NOs: 34 & 35 (nucleic acid, listed as Mycobacterium smegmatis)
chain 1: TGGCCACGGATCCGGGTGACTGCGGGTCCGTA
chain 2: ACGGACCCGCAGTCACCCGGATCCGTGGCCAA
modifications: further chemistry not given here
S. aureus ATCC 6538NA
  growth of S. aureus in BHI, non-iron limiting medium: reduction of the S. aureus growth rate
S. aureus
  number of TFDs detected per genome: 5340 TFDs per genome
[1]
  effect on growth of MRSA strains in BHI medium: no effect on bacterial growth
EMRSA15; Ciprofloxacin 0.5 mg/L (text: 0.5 mg/ml)
  Lagtime: 0.3 h
EMRSA15; Erythromycin 0.5 mg/L (text: 0.5 mg/ml)
  Lagtime: -0.3 h
EMRSA15; Methicillin 2 mg/L (text: 2 mg/ml)
  Lagtime: 0.2 h
[2]
  inhibition of cell growth of clinically-isolated MRSA strain: could not
K. pneumoniae [3]
  inhibition of growth of K. pneumoniae culture: no inhibition was seen
K. pneumoniae [4]
  effect on K. pneumoniae cell growth in vitro: no effect on cell growth
